Results as given in patent publication US20160264664A1.
“And” between values parts separate entries of the source, which are not always exact repeats. Identical values can stand only once.

Assays:
[1] = target: human chemokine receptor CXCR4 (human) (UniProt P61073); test: flow cytometry, stable CXCR4 CAKI clone vs CAKI WT cells
[2] = target: human chemokine receptor CXCR4 (human) (UniProt P61073); test: flow cytometry, pVAX1-hCXCR4 transfected HEK293 vs non-transfected HEK293 cells
[3] = target: human chemokine receptor CXCR4 (human) (UniProt P61073); test: flow cytometry, 12G5 then PE goat anti-mouse IgG, on the stable CAKI/CXCR4 clone; the control panel CAKI WT prints MCF:1089
[4] = target: human chemokine receptor CXCR4 (human) (UniProt P61073); test: flow cytometry, 12G5 then PE goat anti-mouse IgG, on HEK293 cells transiently transfected with pVAX1-CXCR4; the control panel HEK293 WT prints MCF:3918
[5] = target: T1, mouse P2X7 (mouse) (UniProt Q9Z1M0); test: cell-based or functional assay
T1 sequence: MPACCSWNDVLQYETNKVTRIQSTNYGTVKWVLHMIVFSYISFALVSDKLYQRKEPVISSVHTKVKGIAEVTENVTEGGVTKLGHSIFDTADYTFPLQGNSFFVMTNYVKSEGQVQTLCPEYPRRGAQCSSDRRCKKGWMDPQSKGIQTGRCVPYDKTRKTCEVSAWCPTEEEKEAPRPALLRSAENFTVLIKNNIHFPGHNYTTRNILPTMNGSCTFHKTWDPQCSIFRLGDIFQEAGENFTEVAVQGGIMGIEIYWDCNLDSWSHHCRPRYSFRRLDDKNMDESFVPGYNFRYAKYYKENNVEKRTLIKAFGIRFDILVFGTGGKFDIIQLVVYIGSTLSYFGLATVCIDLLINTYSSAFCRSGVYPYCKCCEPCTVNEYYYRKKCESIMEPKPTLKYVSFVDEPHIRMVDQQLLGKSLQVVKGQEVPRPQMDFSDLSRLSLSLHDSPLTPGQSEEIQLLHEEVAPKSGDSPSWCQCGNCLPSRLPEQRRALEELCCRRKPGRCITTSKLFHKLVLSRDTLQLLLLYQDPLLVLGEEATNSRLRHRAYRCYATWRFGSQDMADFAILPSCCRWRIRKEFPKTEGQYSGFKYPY

[6] = target: T1, mouse P2X7 (mouse); test: flow cytometry, purified Nanobody titrated on mP2X7-CHO cells
[7] = target: human chemokine receptor CXCR4 (human) (UniProt P61073); test: ELISA, periplasmic extract on CXCR4 membrane vesicles, anti-Myc detection

Sequence of human chemokine receptor CXCR4 (human) (P61073 whole entry): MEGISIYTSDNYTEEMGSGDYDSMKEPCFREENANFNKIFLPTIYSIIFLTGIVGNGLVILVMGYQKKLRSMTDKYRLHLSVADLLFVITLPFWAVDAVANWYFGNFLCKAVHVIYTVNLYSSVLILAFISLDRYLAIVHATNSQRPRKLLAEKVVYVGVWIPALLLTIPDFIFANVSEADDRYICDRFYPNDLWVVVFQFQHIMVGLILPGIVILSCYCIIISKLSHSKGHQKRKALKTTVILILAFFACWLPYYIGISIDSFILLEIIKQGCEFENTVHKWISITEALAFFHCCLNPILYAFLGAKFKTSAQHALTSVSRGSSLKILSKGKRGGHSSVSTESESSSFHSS

fluorescence shift over non-transfected camelid cells [1] [fold]	fluorescence intensity shift of transfected over non-transfected cells [2] [fold]	MCF [3]	MCF [4]	percentage of cells remaining CD62L positive after ATP or NAD (Yac-1 cells, control) [5]	maximum MCF value [6] [MCF]	ELISA signal on hCXCR4 membrane vesicles over control membrane vesicles [7]	Substance
114	38	125000	152000	–	–	–	Human CXCR4 specific monoclonal antibody 12G5 (R&D Systems MAB170)
–	–	–	–	2% and 20%	314 to 355	1.1	irrelevant control Nanobody (VHH)
